Data as given in PMC8294587, “Intrinsic differences in the mechanisms of Tie2 binding to angiopoietins exploited by directed evolution to create an Ang2-selective ligand trap” (The Journal of Biological Chemistry, 2021).

T1: Angiopoietin-1 (UniProt Q15389 16-498)
T1 construct: recombinant Ang1; the residue numbers printed for Ang1 (Gln415, Asp450, Leu471, Tyr478) come from the cited structure 4K0V; also called Ang1; source: recombinant
T1 sequence (looked up): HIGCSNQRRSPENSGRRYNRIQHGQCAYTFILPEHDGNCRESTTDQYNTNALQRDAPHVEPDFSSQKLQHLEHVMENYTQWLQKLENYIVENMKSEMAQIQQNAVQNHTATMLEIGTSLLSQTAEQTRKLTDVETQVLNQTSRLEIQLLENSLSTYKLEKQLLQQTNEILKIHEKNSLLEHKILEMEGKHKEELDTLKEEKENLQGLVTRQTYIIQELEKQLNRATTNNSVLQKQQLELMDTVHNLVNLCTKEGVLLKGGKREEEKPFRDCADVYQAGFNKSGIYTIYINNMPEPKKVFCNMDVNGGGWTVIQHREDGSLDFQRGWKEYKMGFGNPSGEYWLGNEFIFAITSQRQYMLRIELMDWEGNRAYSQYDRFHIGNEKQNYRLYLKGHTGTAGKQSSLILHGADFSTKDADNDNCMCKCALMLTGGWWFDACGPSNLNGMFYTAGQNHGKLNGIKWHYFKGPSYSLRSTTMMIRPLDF

T2: Angiopoietin-2 (UniProt O15123 19-496)
T2 construct: recombinant Ang2; the residue numbers printed for Ang2 (Asp448, Phe469, Ser480) come from the cited structure 2GY7; also called Ang2; source: recombinant
T2 sequence (looked up): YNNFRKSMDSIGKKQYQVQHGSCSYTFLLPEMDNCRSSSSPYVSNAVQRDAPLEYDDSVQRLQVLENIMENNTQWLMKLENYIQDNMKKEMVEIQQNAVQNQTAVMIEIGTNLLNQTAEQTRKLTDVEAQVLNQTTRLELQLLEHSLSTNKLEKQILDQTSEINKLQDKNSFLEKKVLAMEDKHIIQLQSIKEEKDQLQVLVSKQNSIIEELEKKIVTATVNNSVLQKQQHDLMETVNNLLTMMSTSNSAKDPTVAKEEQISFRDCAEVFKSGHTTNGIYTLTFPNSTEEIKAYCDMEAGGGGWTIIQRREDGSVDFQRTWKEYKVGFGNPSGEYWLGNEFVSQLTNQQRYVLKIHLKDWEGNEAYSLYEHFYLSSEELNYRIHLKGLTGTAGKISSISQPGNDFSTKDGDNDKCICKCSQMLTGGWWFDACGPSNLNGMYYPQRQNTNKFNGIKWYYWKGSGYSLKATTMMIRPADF


Columns and labels:
Experiment in all cases: ELISA; recombinant Ang1 or Ang2 immobilised on Maxisorp plates, blocked with TBS, 0.1% Triton-X100, 5% milk powder; Tie2 ectodomain proteins bound for 1 h; detected with anti-Tie2 ectodomain antibodies; EC50 = concentration of ectodomain for 50% of maximal binding
Conditions in all cases: both partners purified
Angiopoietin-1 = target: T1, Angiopoietin-1
Angiopoietin-2 [1] = target: T2, Angiopoietin-2
Angiopoietin-2 [2] = target: T2, Angiopoietin-2; remark: listed apart in the source

Binder | EC50 (Angiopoietin-1) [nM] | EC50 (Angiopoietin-2 [1]) [nM] | EC50 (Angiopoietin-2 [2]) [nM]
Tie2 ectodomain-Fc S164A (Fc fusion, human, UniProt Q02763 23-442, looked up, signal peptide in the construct; Tie2 ectodomain, human, residues 1-442; source: Hek293, transfected, purified from culture medium (nickel chromatography); not shown: Fc (fragment of human Fc immunoglobulin domain, after a GS4 linker), C-terminal, kept) AMDLILINSLPLVSDAETSLTCIASGWRPHEPITIGRDFEALMNQHQDPLEVTQDVTREWAKKVVWKREKASKINGAYFCEGRVRGEAIRIRTMKMRQQASFLPATLTMTVDKGDNVNISFKKVLIKEEDAVIYKNGSFIHAVPRHEVPDILEVHLPHAQPQDAGVYSARYIGGNLFTSAFTRLIVRRCEAQKWGPECNHLCTACMNNGVCHEDTGECICPPGFMGRTCEKACELHTFGRTCKERCSGQEGCKSYVFCLPDPYGCSCATGWKGLQCNEACHPGFYGPDCKLRCSCNNGEMCDRFQGCLCSPGWQGLQCEREGIQRMTPKIVDLPDHIEVNSGKFNPICKASGWPLPTNEEMTLVKPDGTVLHPKDFNHTDHFSVAIFTIHRILPPDSGVWVCSVNTVAGMVEKPFNISVK | 0.44 | 14.4 | –
Tie2 ectodomain-Fc I162A (Fc fusion, human, UniProt Q02763 23-442, looked up, signal peptide in the construct; Tie2 ectodomain, human, residues 1-442; source: Hek293, transfected, purified from culture medium (nickel chromatography); not shown: Fc (fragment of human Fc immunoglobulin domain, after a GS4 linker), C-terminal, kept) AMDLILINSLPLVSDAETSLTCIASGWRPHEPITIGRDFEALMNQHQDPLEVTQDVTREWAKKVVWKREKASKINGAYFCEGRVRGEAIRIRTMKMRQQASFLPATLTMTVDKGDNVNISFKKVLIKEEDAVIYKNGSFAHSVPRHEVPDILEVHLPHAQPQDAGVYSARYIGGNLFTSAFTRLIVRRCEAQKWGPECNHLCTACMNNGVCHEDTGECICPPGFMGRTCEKACELHTFGRTCKERCSGQEGCKSYVFCLPDPYGCSCATGWKGLQCNEACHPGFYGPDCKLRCSCNNGEMCDRFQGCLCSPGWQGLQCEREGIQRMTPKIVDLPDHIEVNSGKFNPICKASGWPLPTNEEMTLVKPDGTVLHPKDFNHTDHFSVAIFTIHRILPPDSGVWVCSVNTVAGMVEKPFNISVK | 6.38 | 23.1 | –
R5 Tie2 ectodomain-Fc (Phe161Ile, deletion of Arg167 and His168, Ser164Leu, Pro171Ser) (Fc fusion, human, UniProt Q02763 23-442, looked up, signal peptide in the construct; Tie2 ectodomain, human, residues 1-442, variant from directed evolution; also called R5-Fc; evolved ectodomain; source: Hek293, transfected, purified from culture medium (nickel chromatography); not shown: Fc (fragment of human Fc immunoglobulin domain, after a GS4 linker), C-terminal, kept) AMDLILINSLPLVSDAETSLTCIASGWRPHEPITIGRDFEALMNQHQDPLEVTQDVTREWAKKVVWKREKASKINGAYFCEGRVRGEAIRIRTMKMRQQASFLPATLTMTVDKGDNVNISFKKVLIKEEDAVIYKNGSIIHLVPEVSDILEVHLPHAQPQDAGVYSARYIGGNLFTSAFTRLIVRRCEAQKWGPECNHLCTACMNNGVCHEDTGECICPPGFMGRTCEKACELHTFGRTCKERCSGQEGCKSYVFCLPDPYGCSCATGWKGLQCNEACHPGFYGPDCKLRCSCNNGEMCDRFQGCLCSPGWQGLQCEREGIQRMTPKIVDLPDHIEVNSGKFNPICKASGWPLPTNEEMTLVKPDGTVLHPKDFNHTDHFSVAIFTIHRILPPDSGVWVCSVNTVAGMVEKPFNISVK | – | – | 3.4

Further lines, results first:

EC50 (Angiopoietin-1) [nM] | EC50 (Angiopoietin-2 [1]) [nM] | EC50 (Angiopoietin-2 [2]) [nM] | Binder
26.6 | 10.3 | – | Tie2 ectodomain-Fc R167A (Fc fusion, human, UniProt Q02763 23-442, looked up, signal peptide in the construct; Tie2 ectodomain, human, residues 1-442; also called Arg167Ala; source: Hek293, transfected, purified from culture medium (nickel chromatography); not shown: Fc (fragment of human Fc immunoglobulin domain, after a GS4 linker), C-terminal, kept) AMDLILINSLPLVSDAETSLTCIASGWRPHEPITIGRDFEALMNQHQDPLEVTQDVTREWAKKVVWKREKASKINGAYFCEGRVRGEAIRIRTMKMRQQASFLPATLTMTVDKGDNVNISFKKVLIKEEDAVIYKNGSFIHSVPAHEVPDILEVHLPHAQPQDAGVYSARYIGGNLFTSAFTRLIVRRCEAQKWGPECNHLCTACMNNGVCHEDTGECICPPGFMGRTCEKACELHTFGRTCKERCSGQEGCKSYVFCLPDPYGCSCATGWKGLQCNEACHPGFYGPDCKLRCSCNNGEMCDRFQGCLCSPGWQGLQCEREGIQRMTPKIVDLPDHIEVNSGKFNPICKASGWPLPTNEEMTLVKPDGTVLHPKDFNHTDHFSVAIFTIHRILPPDSGVWVCSVNTVAGMVEKPFNISVK
1.38 | 5.88 | – | Tie2 ectodomain-Fc H163A (Fc fusion, human, UniProt Q02763 23-442, looked up, signal peptide in the construct; Tie2 ectodomain, human, residues 1-442; source: Hek293, transfected, purified from culture medium (nickel chromatography); not shown: Fc (fragment of human Fc immunoglobulin domain, after a GS4 linker), C-terminal, kept) AMDLILINSLPLVSDAETSLTCIASGWRPHEPITIGRDFEALMNQHQDPLEVTQDVTREWAKKVVWKREKASKINGAYFCEGRVRGEAIRIRTMKMRQQASFLPATLTMTVDKGDNVNISFKKVLIKEEDAVIYKNGSFIASVPRHEVPDILEVHLPHAQPQDAGVYSARYIGGNLFTSAFTRLIVRRCEAQKWGPECNHLCTACMNNGVCHEDTGECICPPGFMGRTCEKACELHTFGRTCKERCSGQEGCKSYVFCLPDPYGCSCATGWKGLQCNEACHPGFYGPDCKLRCSCNNGEMCDRFQGCLCSPGWQGLQCEREGIQRMTPKIVDLPDHIEVNSGKFNPICKASGWPLPTNEEMTLVKPDGTVLHPKDFNHTDHFSVAIFTIHRILPPDSGVWVCSVNTVAGMVEKPFNISVK
